Measured values taken from publication PMC11479946, “Coupling enzymatic activity and gating in an ancient TRPM chanzyme and its molecular evolution” (Nature Structural & Molecular Biology, 2024).
Blank lines part the entries; values can stand above or below the compound they belong to.

What was measured:
[1] = target: srTRPM2–ΔNUDT9-H (Salpingoeca rosetta) (UniProt F2UB89); test: cryo-EM structure; purified protein with EDTA (1 mM), CaCl2 (1 mM), MgCl2 (10 mM) or EDTA–ADPR (1:1 mM), 30 min; apo or partially ligand-bound states; C4 symmetry; NUDT9-H domains flexible, not tetramerised
[2] = target: srTRPM2–ΔNUDT9-H (Salpingoeca rosetta) (UniProt F2UB89); test: cryo-EM structure; purified protein in GDN or nanodisc with CaCl2–ADPR (1:1 mM), MgCl2–AMP–R5P (10:1:1 mM) or MgCl2–ADPR (10:1 mM; 5 s, 10 s or 4 min); fully ligand-bound states; NUDT9-H layer tetramerised via the buckle helix
[3] = target: Salpingoeca rosetta TRPM2 chanzyme, wild type, full length (Salpingoeca rosetta); test: cryo-EM structure; purified protein with EDTA (1 mM), CaCl2 (1 mM), MgCl2 (10 mM) or EDTA–ADPR (1:1 mM), 30 min; apo or partially ligand-bound states; C4 symmetry; NUDT9-H domains flexible, not tetramerised
[4] = target: Salpingoeca rosetta TRPM2 chanzyme, wild type, full length (Salpingoeca rosetta); test: cryo-EM structure; purified protein in GDN or nanodisc with CaCl2–ADPR (1:1 mM), MgCl2–AMP–R5P (10:1:1 mM) or MgCl2–ADPR (10:1 mM; 5 s, 10 s or 4 min); fully ligand-bound states; NUDT9-H layer tetramerised via the buckle helix
[5] = target: T1, srTRPM2 (Salpingoeca rosetta, UniProt F2UB89, F268A); test: inside-out patch clamp, tsA201 cells, +[…] mV; type: biochemical; details: Ca2+ with ADPR; MHR1/2 site; no activation
T1 construct: gene PTSG_05449; full length; N-terminal TwinStrepII-His8-eGFP tag (thrombin-cleaved for enzyme assays and nanodiscs); expressed in tsA201 cells; homotetramer, GDN detergent or nanodisc
T1 sequence (F2UB89 entry or part of it F268A): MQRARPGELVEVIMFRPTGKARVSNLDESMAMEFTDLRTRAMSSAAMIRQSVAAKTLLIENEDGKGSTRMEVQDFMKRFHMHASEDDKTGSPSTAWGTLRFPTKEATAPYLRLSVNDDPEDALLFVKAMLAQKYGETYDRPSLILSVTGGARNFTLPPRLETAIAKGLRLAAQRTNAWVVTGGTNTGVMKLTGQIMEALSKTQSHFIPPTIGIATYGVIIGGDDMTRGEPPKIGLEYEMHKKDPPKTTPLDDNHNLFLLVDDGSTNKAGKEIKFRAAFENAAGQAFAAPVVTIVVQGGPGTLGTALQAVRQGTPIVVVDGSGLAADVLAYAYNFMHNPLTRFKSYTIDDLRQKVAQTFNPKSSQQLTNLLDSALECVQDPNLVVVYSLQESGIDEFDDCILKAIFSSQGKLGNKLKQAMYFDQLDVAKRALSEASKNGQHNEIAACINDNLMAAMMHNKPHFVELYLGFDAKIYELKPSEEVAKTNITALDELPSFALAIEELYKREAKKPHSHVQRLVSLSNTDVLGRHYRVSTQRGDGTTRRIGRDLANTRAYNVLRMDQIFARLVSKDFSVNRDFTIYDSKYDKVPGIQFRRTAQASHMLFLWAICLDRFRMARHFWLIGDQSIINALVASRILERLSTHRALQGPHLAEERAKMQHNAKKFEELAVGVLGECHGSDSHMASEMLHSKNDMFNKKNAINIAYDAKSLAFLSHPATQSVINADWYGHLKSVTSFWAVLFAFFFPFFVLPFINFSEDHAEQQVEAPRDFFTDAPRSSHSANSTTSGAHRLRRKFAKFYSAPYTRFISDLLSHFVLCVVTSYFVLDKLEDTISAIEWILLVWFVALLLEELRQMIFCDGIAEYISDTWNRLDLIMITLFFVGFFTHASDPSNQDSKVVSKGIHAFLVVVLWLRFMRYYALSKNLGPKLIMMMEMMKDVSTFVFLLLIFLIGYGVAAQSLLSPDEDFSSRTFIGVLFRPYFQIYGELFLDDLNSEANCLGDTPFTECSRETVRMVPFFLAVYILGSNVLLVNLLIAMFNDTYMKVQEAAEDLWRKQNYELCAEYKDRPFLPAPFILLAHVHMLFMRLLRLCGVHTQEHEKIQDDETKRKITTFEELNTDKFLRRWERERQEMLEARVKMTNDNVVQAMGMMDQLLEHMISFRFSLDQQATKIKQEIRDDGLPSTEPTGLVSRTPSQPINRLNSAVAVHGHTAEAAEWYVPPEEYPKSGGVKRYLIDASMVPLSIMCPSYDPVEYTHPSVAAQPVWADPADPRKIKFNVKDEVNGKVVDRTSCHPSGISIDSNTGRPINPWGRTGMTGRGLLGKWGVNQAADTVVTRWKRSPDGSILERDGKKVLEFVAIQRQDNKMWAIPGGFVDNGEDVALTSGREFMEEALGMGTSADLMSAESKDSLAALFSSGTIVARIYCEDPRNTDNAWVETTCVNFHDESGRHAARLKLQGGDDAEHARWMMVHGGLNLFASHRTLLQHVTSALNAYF

[6] = target: T2, srNUDT9-H (isolated domain) (Salpingoeca rosetta, UniProt F2UB89); test: HPLC fluorescence of etheno-AMP, Michaelis-Menten fit; type: biochemical; details: 10 mM MgCl2 final, TBS-GDN, 25 °C
T2 construct: gene PTSG_05449; TwinStrepII-His8-eGFP tag, TEV-cleaved; expressed in tsA201 cells; monomeric
T2 sequence (F2UB89 entry or part of it): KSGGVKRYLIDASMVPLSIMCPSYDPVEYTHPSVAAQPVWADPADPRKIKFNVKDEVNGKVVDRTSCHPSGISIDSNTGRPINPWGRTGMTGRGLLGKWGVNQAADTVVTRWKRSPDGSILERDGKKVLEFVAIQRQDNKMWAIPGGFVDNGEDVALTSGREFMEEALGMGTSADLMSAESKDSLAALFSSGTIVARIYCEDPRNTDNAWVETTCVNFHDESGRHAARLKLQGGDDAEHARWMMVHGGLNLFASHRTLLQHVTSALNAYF

[7] = target: T3, srTRPM2 (Salpingoeca rosetta, UniProt F2UB89, R275A); test: inside-out patch clamp, tsA201 cells, +[…] mV; type: biochemical; details: Ca2+ with ADPR; MHR1/2 site; no activation; reduced expression level
T3 construct: gene PTSG_05449; full length; N-terminal TwinStrepII-His8-eGFP tag (thrombin-cleaved for enzyme assays and nanodiscs); expressed in tsA201 cells; homotetramer, GDN detergent or nanodisc
T3 sequence (F2UB89 entry or part of it R275A): as the sequence (F2UB89 entry or part of it F268A) above, with A268F, R275A counted along it

[8] = target: T4, srTRPM2 (Salpingoeca rosetta, UniProt F2UB89); test: HPLC fluorescence of etheno-AMP, Michaelis-Menten fit; type: biochemical; details: 10 mM MgCl2 final, TBS-GDN, 25 °C; buckle helix truncated, borders not given
T4 construct: gene PTSG_05449; full length; N-terminal TwinStrepII-His8-eGFP tag (thrombin-cleaved for enzyme assays and nanodiscs); expressed in tsA201 cells; homotetramer, GDN detergent or nanodisc
T4 sequence (F2UB89 entry or part of it): as the sequence (F2UB89 entry or part of it F268A) above, with A268F counted along it

[9] = target: T4, srTRPM2; test: as above; type: biochemical; details: 10 mM MgCl2 final, TBS-GDN, 25 °C; all buckle helix residues mutated to alanine, positions not given
[10] = target: srTRPM2–E1114A (Salpingoeca rosetta); test: cryo-EM structure; purified protein in GDN or nanodisc with CaCl2–ADPR (1:1 mM), MgCl2–AMP–R5P (10:1:1 mM) or MgCl2–ADPR (10:1 mM; 5 s, 10 s or 4 min); fully ligand-bound states; NUDT9-H layer tetramerised via the buckle helix

stoichiometry N [1]: 4 | stoichiometry N [2]: 4
Compound: srTRPM2–ΔNUDT9-H (from UniProt F2UB89 1-1214) (domain or fragment)

stoichiometry N [3]: 4 | stoichiometry N [4]: 4
Compound: Salpingoeca rosetta TRPM2 chanzyme, wild type, full length (natural protein)

KM [8]: srTRPM2 lacking the buckle helix (ΔBH)
Compound: Nc1ncnc2c1ncn2[C@@H]1O[C@H](COP(=O)(O)OP(=O)(O)OC[C@H]2OC(O)[C@H](O)[C@@H]2O)[C@@H](O)[C@H]1O (stereo partly shown) [ADPR]
inside-out patch clamp, tsA201 cells, +60 mV [5]: Replacement of either of these residues with alanine rendered srTRPM2 insensitive to ADPR | KM [6]: representing the rate of ADPR hydrolysis by the isolated srNUDT9-H domain | inside-out patch clamp, tsA201 cells, +60 mV [7]: Replacement of either of these residues with alanine rendered srTRPM2 insensitive to ADPR | KM [9]: srTRPM2 with the buckle helix residues replaced by alanine (BH2A)

stoichiometry N [10]: 4
Compound: srTRPM2–E1114A (natural protein)
